Test results published in US11965039B2, “Compstatin analogues and their medical uses” (priority 2018, dated 2024).
Starred links: 1 amine or outer side, 2 acyl side, 3 side chain; linkers in the order of their positions; H or OH if unused. Positions of bridges follow the written chain, without caps; N, C: chain ends. Non-standard residues stand in square brackets, D forms with d. Groups on a side chain read outwards from the residue. *: point of attachment. C20 diacid = O=C(O)CCCCCCCCCCCCCCCCCCC(=O)*; Trp(1-Me) = Cn1cc(C[C@H](N)C(=O)O)c2ccccc21; C16 diacid = O=C(O)CCCCCCCCCCCCCCC(=O)*; γGlu = O=C(O)[C@H](CCC(=O)[*:2])N[*:1]; AEEA = NCCOCCOCC(=O)O; Sar = CNCC(=O)O

biological target: Human C3 (Complement tech cat #A113c) (human, UniProt P01024 23-1663); assay: cell-based or functional assay
Sequence (P01024 23-1663 limits assumed): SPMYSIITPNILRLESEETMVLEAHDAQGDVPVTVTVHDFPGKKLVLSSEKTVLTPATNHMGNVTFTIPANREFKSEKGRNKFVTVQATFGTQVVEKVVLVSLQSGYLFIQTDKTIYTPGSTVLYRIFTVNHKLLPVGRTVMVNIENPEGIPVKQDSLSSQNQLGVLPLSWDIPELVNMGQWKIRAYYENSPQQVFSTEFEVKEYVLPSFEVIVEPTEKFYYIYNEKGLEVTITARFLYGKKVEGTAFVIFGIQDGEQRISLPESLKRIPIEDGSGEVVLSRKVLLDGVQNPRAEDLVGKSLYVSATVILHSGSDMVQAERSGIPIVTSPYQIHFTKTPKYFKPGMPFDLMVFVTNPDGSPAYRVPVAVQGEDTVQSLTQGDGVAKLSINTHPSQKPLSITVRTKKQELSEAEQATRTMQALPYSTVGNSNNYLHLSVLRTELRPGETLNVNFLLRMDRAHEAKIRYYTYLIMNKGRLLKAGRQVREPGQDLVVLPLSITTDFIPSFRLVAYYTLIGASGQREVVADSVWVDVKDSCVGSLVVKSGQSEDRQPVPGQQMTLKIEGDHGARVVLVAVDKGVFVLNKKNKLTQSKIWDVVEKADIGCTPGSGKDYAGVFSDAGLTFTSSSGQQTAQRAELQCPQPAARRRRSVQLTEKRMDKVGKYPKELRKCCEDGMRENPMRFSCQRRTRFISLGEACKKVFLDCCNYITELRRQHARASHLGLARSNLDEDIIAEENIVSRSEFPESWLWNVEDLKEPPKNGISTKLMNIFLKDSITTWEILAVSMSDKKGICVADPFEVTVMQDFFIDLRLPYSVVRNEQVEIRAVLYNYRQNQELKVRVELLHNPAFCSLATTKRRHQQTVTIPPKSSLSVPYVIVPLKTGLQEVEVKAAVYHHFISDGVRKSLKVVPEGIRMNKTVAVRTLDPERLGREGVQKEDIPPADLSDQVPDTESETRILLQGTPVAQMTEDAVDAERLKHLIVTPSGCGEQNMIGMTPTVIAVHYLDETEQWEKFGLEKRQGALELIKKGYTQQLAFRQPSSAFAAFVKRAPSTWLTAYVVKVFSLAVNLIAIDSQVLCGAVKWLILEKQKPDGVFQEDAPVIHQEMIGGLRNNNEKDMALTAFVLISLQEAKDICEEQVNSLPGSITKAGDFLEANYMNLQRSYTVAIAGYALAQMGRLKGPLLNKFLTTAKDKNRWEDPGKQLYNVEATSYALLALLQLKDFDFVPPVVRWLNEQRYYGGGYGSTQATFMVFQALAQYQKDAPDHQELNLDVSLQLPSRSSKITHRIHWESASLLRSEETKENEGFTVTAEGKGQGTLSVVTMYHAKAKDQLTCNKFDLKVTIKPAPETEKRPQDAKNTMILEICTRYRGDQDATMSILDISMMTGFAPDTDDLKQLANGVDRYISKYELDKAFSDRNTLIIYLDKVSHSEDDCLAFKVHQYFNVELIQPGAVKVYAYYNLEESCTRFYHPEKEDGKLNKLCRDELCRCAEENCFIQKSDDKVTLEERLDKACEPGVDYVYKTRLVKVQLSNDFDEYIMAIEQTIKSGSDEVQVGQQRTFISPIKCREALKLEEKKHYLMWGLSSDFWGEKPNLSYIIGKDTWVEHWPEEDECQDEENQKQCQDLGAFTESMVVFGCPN

Row | Binder | inhibition of hemolysis IC50 [nM]
1 | {C16 diacid}-ESSAICIWQDWGEHRCTEGE-NH2 (disulfide 6-16) [Compound 99] | < 250
2 | Ac-EGSAICIWQDWGEHRCTEGK([γGlu-C16 diacid])-NH2 (disulfide 6-16; SMILES CC[C@H](C)[C@H](NC(=O)[C@H](C)NC(=O)[C@H](CO)NC(=O)CNC(=O)[C@H](CCC(=O)O)NC(C)=O)C(=O)N[C@H]1CSSC[C@@H](C(=O)N[C@H](C(=O)N[C@@H](CCC(=O)O)C(=O)NCC(=O)N[C@@H](CCCCNC(=O)CC[C@H](NC(=O)CCCCCCCCCCCCCCC(=O)O)C(=O)O)C(N)=O)[C@@H](C)O)NC(=O)[C@H](CCCNC(=N)N)NC(=O)[C@H](Cc2c[nH]cn2)NC(=O)[C@H](CCC(=O)O)NC(=O)CNC(=O)[C@H](Cc2c[nH]c3ccccc23)NC(=O)[C@H](CC(=O)O)NC(=O)[C@H](CCC(N)=O)NC(=O)[C@H](Cc2c[nH]c3ccccc23)NC(=O)[C@H]([C@@H](C)CC)NC1=O) [Compound 101] | < 500
3 | Ac-K([AEEA-AEEA-γGlu-C16 diacid])GSAICIWQDWGEHRCTEGE-NH2 (disulfide 6-16; SMILES CC[C@H](C)[C@H](NC(=O)[C@H](C)NC(=O)[C@H](CO)NC(=O)CNC(=O)[C@H](CCCCNC(=O)COCCOCCNC(=O)COCCOCCNC(=O)CC[C@H](NC(=O)CCCCCCCCCCCCCCC(=O)O)C(=O)O)NC(C)=O)C(=O)N[C@H]1CSSC[C@@H](C(=O)N[C@H](C(=O)N[C@@H](CCC(=O)O)C(=O)NCC(=O)N[C@@H](CCC(=O)O)C(N)=O)[C@@H](C)O)NC(=O)[C@H](CCCNC(=N)N)NC(=O)[C@H](Cc2c[nH]cn2)NC(=O)[C@H](CCC(=O)O)NC(=O)CNC(=O)[C@H](Cc2c[nH]c3ccccc23)NC(=O)[C@H](CC(=O)O)NC(=O)[C@H](CCC(N)=O)NC(=O)[C@H](Cc2c[nH]c3ccccc23)NC(=O)[C@H]([C@@H](C)CC)NC1=O) [Compound 100] | < 500
4 | Ac-ICIWQDWGEHRCTEGK([AEEA-AEEA-γGlu-C20 diacid])-NH2 (disulfide 2-12; SMILES CC[C@H](C)[C@H](NC(C)=O)C(=O)N[C@H]1CSSC[C@@H](C(=O)N[C@H](C(=O)N[C@@H](CCC(=O)O)C(=O)NCC(=O)N[C@@H](CCCCNC(=O)COCCOCCNC(=O)COCCOCCNC(=O)CC[C@H](NC(=O)CCCCCCCCCCCCCCCCCCC(=O)O)C(=O)O)C(N)=O)[C@@H](C)O)NC(=O)[C@H](CCCNC(=N)N)NC(=O)[C@H](Cc2c[nH]cn2)NC(=O)[C@H](CCC(=O)O)NC(=O)CNC(=O)[C@H](Cc2c[nH]c3ccccc23)NC(=O)[C@H](CC(=O)O)NC(=O)[C@H](CCC(N)=O)NC(=O)[C@H](Cc2c[nH]c3ccccc23)NC(=O)[C@H]([C@@H](C)CC)NC1=O) [Compound 98] | < 500
5 | Ac-EGSAYCI[Trp(1-Me)]QDWGEHK([AEEA-AEEA-γGlu-C16 diacid])C[Sar]E-NH2 (disulfide 6-16; SMILES CC[C@H](C)[C@@H]1NC(=O)[C@@H](NC(=O)[C@H](Cc2ccc(O)cc2)NC(=O)[C@H](C)NC(=O)[C@H](CO)NC(=O)CNC(=O)[C@H](CCC(=O)O)NC(C)=O)CSSC[C@@H](C(=O)N(C)CC(=O)N[C@@H](CCC(=O)O)C(N)=O)NC(=O)[C@H](CCCCNC(=O)COCCOCCNC(=O)COCCOCCNC(=O)CC[C@H](NC(=O)CCCCCCCCCCCCCCC(=O)O)C(=O)O)NC(=O)[C@H](Cc2c[nH]cn2)NC(=O)[C@H](CCC(=O)O)NC(=O)CNC(=O)[C@H](Cc2c[nH]c3ccccc23)NC(=O)[C@H](CC(=O)O)NC(=O)[C@H](CCC(N)=O)NC(=O)[C@H](Cc2cn(C)c3ccccc23)NC1=O) [Compound 103] | < 100
